{"source": "patent US20060083715A1", "about": "(published 2006)", "molecular_target": "T1, Interferon type I receptors on HeLa cells (UniProt P17181 28-557; P48551 27-515, limits assumed)", "T1 sequence (looked up) 1": "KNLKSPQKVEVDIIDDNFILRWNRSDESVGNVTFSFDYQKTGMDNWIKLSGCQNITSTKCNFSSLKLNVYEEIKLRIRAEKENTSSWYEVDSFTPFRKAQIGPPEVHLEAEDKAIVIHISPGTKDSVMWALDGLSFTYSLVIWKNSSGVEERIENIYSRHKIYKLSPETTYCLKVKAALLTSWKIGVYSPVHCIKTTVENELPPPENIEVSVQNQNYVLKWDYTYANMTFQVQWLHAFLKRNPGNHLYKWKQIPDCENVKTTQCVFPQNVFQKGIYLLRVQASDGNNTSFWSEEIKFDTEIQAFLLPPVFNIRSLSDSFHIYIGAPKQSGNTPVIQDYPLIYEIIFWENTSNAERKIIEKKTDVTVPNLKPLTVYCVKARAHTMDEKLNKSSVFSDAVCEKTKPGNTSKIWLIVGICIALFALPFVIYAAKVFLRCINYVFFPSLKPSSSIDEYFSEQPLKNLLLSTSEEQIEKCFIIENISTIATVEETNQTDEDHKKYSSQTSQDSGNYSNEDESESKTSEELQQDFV", "T1 sequence (looked up) 2": "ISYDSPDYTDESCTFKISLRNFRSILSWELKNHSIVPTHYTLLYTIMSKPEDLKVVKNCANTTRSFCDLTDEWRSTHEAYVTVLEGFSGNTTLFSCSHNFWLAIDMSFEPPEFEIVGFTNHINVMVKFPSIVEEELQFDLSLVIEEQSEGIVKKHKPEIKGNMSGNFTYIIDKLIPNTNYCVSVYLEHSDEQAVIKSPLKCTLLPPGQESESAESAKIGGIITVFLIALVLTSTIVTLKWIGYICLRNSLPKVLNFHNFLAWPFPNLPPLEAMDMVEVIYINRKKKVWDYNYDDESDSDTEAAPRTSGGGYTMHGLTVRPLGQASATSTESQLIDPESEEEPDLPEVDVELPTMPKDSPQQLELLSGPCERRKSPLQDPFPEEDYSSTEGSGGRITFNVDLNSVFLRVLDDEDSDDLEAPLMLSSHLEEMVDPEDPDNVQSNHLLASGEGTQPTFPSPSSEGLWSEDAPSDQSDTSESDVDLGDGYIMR", "assay": "cell-based or functional assay", "data": [{"binder": "[F111N+R113T] human IFNB variant (ligand, introduced in vivo N-glycosylation site at position 111) MSYNLLGFLQRSSNFQCQKLLWQLNGRLEYCLKDRMNFDIPEEIKQLQQFQKEDAALTIYEMLQNIFAIFRQDSSSTGWNETIVENLLANVYHQINHLKTVLEEKLEKEDNTTGKLMSSLHLKRYYGRILHYLKAKEYSHCAWTIVRVEILRNFYFINRLTGYLRN", "values": [{"measurement": "specific activity relative to wild-type human IFNB (primary assay)", "result": "~2 fold of wild-type human IFNB"}]}]}
